Reference: the Immune Epitope Database (IEDB)

Tests used:
[1] = target: HLA-A*32:01; experiment: IEDB peptide-MHC binding, purified MHC/competitive/radioactivity; filed as Kd, often an IC50 or EC50 that approximates it; ≥ and ≤ were set here for values at or beyond the usual limits of such assays
[2] = target: HLA-A*30:01; experiment: as above
[3] = target: HLA-A*01:01; experiment: as above
[4] = target: HLA-A*03:01; experiment: as above
[5] = target: HLA-A*11:01; experiment: as above; settings: source organism: SARS coronavirus Tor2
[6] = target: HLA-A*23:01; experiment: as above
[7] = target: HLA-A*24:02; experiment: as above
[8] = target: HLA-A*26:01; experiment: as above
[9] = target: HLA-A*29:02; experiment: as above
[10] = target: HLA-A*30:02; experiment: as above
[11] = target: HLA-A*31:01; experiment: as above; settings: source organism: SARS coronavirus Tor2
[12] = target: HLA-A*33:01; experiment: as above; settings: source organism: SARS coronavirus Tor2
[13] = target: HLA-A*68:01; experiment: as above; settings: source organism: SARS coronavirus Tor2
[14] = target: HLA-B*51:01; experiment: as above
[15] = target: HLA-B*07:02; experiment: as above
[16] = target: HLA-A*02:01; experiment: IEDB peptide-MHC binding, purified MHC/competitive/fluorescence; filed as Kd, often an IC50 or EC50 that approximates it; ≥ and ≤ were set here for values at or beyond the usual limits of such assays
[17] = target: HLA-B*35:01; experiment: IEDB peptide-MHC binding, purified MHC/competitive/radioactivity; filed as Kd, often an IC50 or EC50 that approximates it; ≥ and ≤ were set here for values at or beyond the usual limits of such assays
[18] = target: HLA-A*01:01; experiment: IEDB peptide-MHC binding, purified MHC/direct/fluorescence; filed as Kd, often an IC50 or EC50 that approximates it; ≥ and ≤ were set here for values at or beyond the usual limits of such assays; settings: source organism: Mycobacterium tuberculosis variant bovis BCG str. Pasteur 1173P2
[19] = target: HLA-A*26:01; experiment: as above; settings: source organism: Mycobacterium tuberculosis
[20] = source organism: Vaccinia virus WR
[21] = source organism: SARS coronavirus Tor2
[22] = source organism: Dengue virus 2 Jamaica/1409/1983
[23] = source organism: Mammarenavirus guanaritoense
[24] = source organism: Mammarenavirus lassaense
[25] = source organism: Mammarenavirus machupoense
[26] = source organism: Dengue virus 1 Brazil/97-11/1997

Sequence ITLFLILCY has a Kd [1, 20] of 1800 nM.
In the case of KVFVPAPFG, the Kd [2, 20] is reported as 6.64 nM.
AMDEFIQRY gave a Kd [3, 21] of 64.4 nM, a Kd [4, 21] of 1630 nM and a Kd [5] of 3230 nM. For the same sequence, the Kd [6, 21] was ≥ 20100 nM, the Kd [7, 21] was 7900 nM and the Kd [8, 21] was ≥ 84100 nM. The Kd [9, 21] was 896 nM, the Kd [10, 21] was 1390 nM and the Kd [11] was ≥ 77900 nM. For the same sequence, the Kd [12] was ≥ 77700 nM and the Kd [13] was ≥ 77700 nM.
For FAAGLLLRKL, the Kd [14, 22] was 11600 nM.
MADVPLQWI gave a Kd ([14]; source organism: Dengue virus 3 Singapore/8120/1995) of 2270 nM.
CYSKSLRDLV was tested, and the Kd [3, 23] was 12600 nM, the Kd [6, 23] was 3070 nM and the Kd [7, 23] was 529 nM. For the same sequence, the Kd [8, 23] was ≥ 69700 nM, the Kd [9, 23] was ≥ 43000 nM and the Kd [10, 23] was ≥ 69700 nM.
In the case of AAAWYLWEVK, the Kd [1, 22] is reported as 2060 nM.
CTREEFTRK showed a Kd [2, 22] of 64.4 nM.
RFASALTAL was tested, and the Kd [15, 22] was 324 nM.
CFISVNDRLV was tested, and the Kd [3, 24] was 18100 nM, the Kd [6, 24] was 358 nM and the Kd [7, 24] was 11400 nM. For the same sequence, the Kd [8, 24] was ≥ 69700 nM, the Kd [9, 24] was 5260 nM and the Kd [10, 24] was 573 nM.
For YMMNIYLNF, the Kd [1, 20] was 2.93 nM.
For VIEGPTTCGY, the Kd [3, 21] was 109 nM, the Kd [6, 21] was ≥ 38100 nM and the Kd [7, 21] was 17000 nM. The Kd [8, 21] was 907 nM, the Kd [9, 21] was 152 nM and the Kd [10, 21] was 26.2 nM.
EYISDAFSL was tested, and the Kd [3, 21] was ≥ 37600 nM, the Kd [6, 21] was ≥ 64600 nM and the Kd [7, 21] was ≥ 91800 nM. For the same sequence, the Kd [8, 21] was ≥ 77900 nM, the Kd [9, 21] was ≥ 88200 nM and the Kd [10, 21] was ≥ 81100 nM.
SYRTRAINK gave a Kd [2, 20] of 1020 nM.
Work on RHRKPTYEK yielded a Kd ([2]; source organism: Dengue virus 4 Philippines/H241/1956) of 24.5 nM.
HCALLDCIMY was tested, and the Kd [3, 25] was 232 nM, the Kd [6, 25] was ≥ 70000 nM and the Kd [7, 25] was ≥ 70300 nM. The Kd [8, 25] was ≥ 69700 nM, the Kd [9, 25] was 2180 nM and the Kd [10, 25] was 1420 nM.
For KLGFEEIKGL, the Kd ([16]; source organism: Vaccinia virus Copenhagen) was 30.6 nM.
For SMKSVQNNTV, the Kd [3, 23] was ≥ 70400 nM, the Kd [6, 23] was ≥ 70000 nM and the Kd [7, 23] was ≥ 70300 nM. The Kd [8, 23] was ≥ 69700 nM, the Kd [9, 23] was ≥ 53100 nM and the Kd [10, 23] was 2980 nM.
DTRTQTWMSA was tested, and the Kd ([1]; source organism: Dengue virus 3 Martinique/1243/1999) was 5740 nM.
ILPVIFLSI showed a Kd [1, 20] of 4.49 nM.
TPMMRHTIEN was tested, and the Kd [15, 26] was 1940 nM.
Sequence KLYTIVSTL has a Kd [1, 20] of 7.12 nM.
VDSSQGSEY was tested, and the Kd [3, 21] was 892 nM, the Kd [6, 21] was ≥ 77800 nM and the Kd [7, 21] was ≥ 77600 nM. For the same sequence, the Kd [8, 21] was ≥ 24400 nM, the Kd [9, 21] was 1050 nM and the Kd [10, 21] was 1980 nM.
With MAVGMVSIL the Kd [17, 22] was 10.3 nM.
With KSRLNALGK the Kd [4, 22] was 11.3 nM and the Kd [2, 22] was 3.44 nM.
With RTKSKILFG the Kd [2, 20] was 10 nM.
AIVGGLAEL gave a Kd ([16]; source organism: Japanese encephalitis virus) of 12 nM.
For YFMKFRRVF, the Kd [3, 21] was ≥ 78100 nM, the Kd [6, 21] was ≥ 26900 nM and the Kd [7, 21] was ≥ 77600 nM. For the same sequence, the Kd [8, 21] was ≥ 49300 nM, the Kd [9, 21] was 12700 nM and the Kd [10, 21] was ≥ 22100 nM.
RVPNYNLII was tested, and the Kd [1, 22] was 148 nM.
Work on MPVTVASAA yielded a Kd [15, 26] of 120 nM and a Kd [17, 26] of 8.14 nM.
Work on ITVYFRRTI yielded a Kd [1, 20] of 25.9 nM.
In the case of DVAAMSGYY, the Kd [18] is reported as 318 nM and the Kd [19] is reported as 3 nM.
In the case of SASKSASVY, the Kd [3, 21] is reported as ≥ 24700 nM, the Kd [6, 21] is reported as ≥ 77800 nM and the Kd [7, 21] is reported as ≥ 77600 nM. The Kd [8, 21] was ≥ 20800 nM, the Kd [9, 21] was 4990 nM and the Kd [10, 21] was 385 nM.
